According to article PMC9799976:
One block for each binder: values may come before it.

Legend:
[1] = target: full-length human dynein complex (heavy chain with SNAP-tag, IC, LIC, Tctex, LC8, Robl) (human) (UniProt Q14204)
[2] = target: tail-truncated single-headed human dynein (amino acids 1320-4646 of DYNC1H1), N-terminal GFP (human) (UniProt Q14204)
[3] = target: full-length human dynein complex (heavy chain with SNAP-tag, IC, LIC, Tctex, LC8, Robl) (human) (UniProt Q14204); test: single-molecule TIRF microscopy; 10 nM JIP3 (Halo-JF646) on surface-attached MTs, without or with 1 nM dynein; dwell time of JIP3 on MT-bound dynein

tail-truncated single-headed human dynein (amino acids 1320-4646 of DYNC1H1), N-terminal GFP (human), sequence (Q14204 1320-4646): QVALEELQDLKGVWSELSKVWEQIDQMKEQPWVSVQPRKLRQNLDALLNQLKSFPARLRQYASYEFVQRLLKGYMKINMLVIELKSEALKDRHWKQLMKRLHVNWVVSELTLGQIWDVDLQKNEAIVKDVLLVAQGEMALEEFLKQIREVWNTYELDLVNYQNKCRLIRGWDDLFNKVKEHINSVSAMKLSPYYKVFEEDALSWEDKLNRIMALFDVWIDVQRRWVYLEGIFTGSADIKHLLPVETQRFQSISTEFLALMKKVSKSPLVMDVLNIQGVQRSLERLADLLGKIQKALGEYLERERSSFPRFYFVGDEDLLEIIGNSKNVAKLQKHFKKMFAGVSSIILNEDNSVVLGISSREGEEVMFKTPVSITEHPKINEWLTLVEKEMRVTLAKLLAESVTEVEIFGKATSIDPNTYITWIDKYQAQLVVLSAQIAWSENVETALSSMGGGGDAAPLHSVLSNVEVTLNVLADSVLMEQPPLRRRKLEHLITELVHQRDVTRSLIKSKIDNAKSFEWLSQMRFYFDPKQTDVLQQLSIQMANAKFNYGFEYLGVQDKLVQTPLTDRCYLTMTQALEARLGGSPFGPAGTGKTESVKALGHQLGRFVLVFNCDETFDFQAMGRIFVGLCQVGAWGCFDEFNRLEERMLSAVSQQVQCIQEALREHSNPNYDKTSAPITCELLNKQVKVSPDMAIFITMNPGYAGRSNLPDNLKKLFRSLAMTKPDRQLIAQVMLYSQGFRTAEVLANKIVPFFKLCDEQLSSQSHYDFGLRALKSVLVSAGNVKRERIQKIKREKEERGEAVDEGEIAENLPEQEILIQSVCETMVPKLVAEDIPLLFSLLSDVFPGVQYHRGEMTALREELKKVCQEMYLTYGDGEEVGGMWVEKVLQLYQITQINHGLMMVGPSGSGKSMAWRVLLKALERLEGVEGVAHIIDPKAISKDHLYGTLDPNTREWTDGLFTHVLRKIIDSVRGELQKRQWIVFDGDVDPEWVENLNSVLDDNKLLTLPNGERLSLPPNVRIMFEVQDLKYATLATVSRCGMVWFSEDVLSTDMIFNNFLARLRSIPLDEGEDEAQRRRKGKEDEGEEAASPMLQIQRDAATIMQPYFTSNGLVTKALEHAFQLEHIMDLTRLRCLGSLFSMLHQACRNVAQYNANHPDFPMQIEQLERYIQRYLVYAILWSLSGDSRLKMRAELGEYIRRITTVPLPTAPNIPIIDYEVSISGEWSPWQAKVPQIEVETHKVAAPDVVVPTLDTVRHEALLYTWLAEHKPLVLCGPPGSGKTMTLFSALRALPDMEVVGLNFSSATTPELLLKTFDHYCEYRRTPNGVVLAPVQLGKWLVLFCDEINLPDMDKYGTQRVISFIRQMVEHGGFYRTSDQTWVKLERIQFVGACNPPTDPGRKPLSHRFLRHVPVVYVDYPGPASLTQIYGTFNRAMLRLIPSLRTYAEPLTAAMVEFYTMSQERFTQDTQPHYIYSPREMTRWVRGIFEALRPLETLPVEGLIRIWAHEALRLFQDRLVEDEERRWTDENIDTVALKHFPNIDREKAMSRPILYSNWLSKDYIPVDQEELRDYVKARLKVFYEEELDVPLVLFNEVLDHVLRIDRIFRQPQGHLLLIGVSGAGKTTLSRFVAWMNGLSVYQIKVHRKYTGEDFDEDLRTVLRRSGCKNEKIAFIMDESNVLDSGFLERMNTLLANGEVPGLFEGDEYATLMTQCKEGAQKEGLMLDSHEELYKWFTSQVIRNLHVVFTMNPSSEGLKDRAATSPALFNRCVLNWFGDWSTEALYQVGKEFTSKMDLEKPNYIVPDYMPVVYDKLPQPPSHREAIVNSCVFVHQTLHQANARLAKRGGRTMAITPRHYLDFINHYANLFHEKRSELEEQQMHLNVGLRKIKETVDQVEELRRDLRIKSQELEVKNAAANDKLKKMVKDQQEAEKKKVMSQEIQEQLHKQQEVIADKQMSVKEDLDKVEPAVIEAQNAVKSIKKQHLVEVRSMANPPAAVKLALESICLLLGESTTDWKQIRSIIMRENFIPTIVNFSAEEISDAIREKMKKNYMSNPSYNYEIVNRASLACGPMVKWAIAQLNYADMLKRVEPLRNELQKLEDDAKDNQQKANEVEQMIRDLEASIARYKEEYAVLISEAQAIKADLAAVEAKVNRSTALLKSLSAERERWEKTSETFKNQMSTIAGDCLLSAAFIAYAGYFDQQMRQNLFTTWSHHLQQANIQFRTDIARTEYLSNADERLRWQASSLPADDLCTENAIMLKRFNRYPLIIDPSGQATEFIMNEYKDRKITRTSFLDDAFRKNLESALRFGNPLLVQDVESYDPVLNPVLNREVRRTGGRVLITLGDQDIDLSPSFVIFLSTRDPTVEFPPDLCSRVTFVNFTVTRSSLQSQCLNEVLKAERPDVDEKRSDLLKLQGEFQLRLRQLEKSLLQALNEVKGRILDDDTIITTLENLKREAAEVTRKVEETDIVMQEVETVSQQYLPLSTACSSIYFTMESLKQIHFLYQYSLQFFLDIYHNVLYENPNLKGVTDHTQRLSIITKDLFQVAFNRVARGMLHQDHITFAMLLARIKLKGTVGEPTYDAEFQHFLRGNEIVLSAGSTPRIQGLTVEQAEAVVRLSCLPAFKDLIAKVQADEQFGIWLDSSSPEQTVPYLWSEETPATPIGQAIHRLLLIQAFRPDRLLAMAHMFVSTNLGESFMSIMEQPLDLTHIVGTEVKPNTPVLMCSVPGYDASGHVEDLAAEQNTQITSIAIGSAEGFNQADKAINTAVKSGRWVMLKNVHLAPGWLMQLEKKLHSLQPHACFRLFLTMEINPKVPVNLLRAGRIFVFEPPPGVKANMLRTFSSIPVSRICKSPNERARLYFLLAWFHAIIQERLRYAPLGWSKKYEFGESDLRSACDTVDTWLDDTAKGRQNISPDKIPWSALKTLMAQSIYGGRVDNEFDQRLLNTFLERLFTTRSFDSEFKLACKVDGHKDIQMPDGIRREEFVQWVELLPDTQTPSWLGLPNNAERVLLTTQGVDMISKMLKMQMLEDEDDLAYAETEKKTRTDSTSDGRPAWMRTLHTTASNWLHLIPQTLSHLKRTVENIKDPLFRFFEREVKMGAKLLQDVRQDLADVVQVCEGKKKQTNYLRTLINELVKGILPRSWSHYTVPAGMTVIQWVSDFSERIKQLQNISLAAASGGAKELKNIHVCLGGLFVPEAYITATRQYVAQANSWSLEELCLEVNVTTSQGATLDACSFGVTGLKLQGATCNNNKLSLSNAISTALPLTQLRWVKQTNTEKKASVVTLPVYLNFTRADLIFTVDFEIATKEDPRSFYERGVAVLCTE

- velocity of DDJ motor complexes on MTs with 10 nM DCX (DDJ only: 0.76 [0.65, 0.89] µm/s) [1]: 0.62 µm/s
B1: full-length DCX with a C-terminal ybbR-tag (DCX-ybbR) (natural protein)
chain: MELDFGHFDERDKTSRNMRGSRMNGLPSPTHSAHCSFYRTRTLQALSNEKKAKKVRFYRNGDRYFKGIVYAVSSDRFRSFDALLADLTRSLSDNINLPQGVRYIYTIDGSRKIGSMDELEEGESYVCSSDNFFKKVEYTKNVNPNWSVNVKTSANMKAPQSLASSNSAQARENKDFVRPKLVTIIRSGVKPRKAVRVLLNKKTAHSFEQVLTDITEAIKLETGVVKKLYTLDGKQVTCLHDFFGDDDVFIACGPEKFRYAQDDFSLDENECRVMKGNPSATAGPKASPTPQKTSAKSPGPMRRSKSPADSGNDQDANGTSSSQLSTPKSKQSPISTPTSPGSLRKHKDLYLPLSLDDSDSLGDSM
modifications: CoA-CF488 or CoA-JF549 on the ybbR-tag

- velocity of DDJ motor complexes on MTs with 10 nM N-DCX (DDJ only: 0.76 [0.65, 0.89] µm/s) [1]: 0.54 µm/s
- velocity of MT gliding powered by surface-bound single-headed dynein with 10 nM N-DCX, not significantly changed (without N-DCX: 0.59 [0.56, 0.63] µm/s) [2]: 0.58 µm/s
B2: N-DCX with a C-terminal ybbR-tag (N-DCX-ybbR) (domain or fragment)
chain: MELDFGHFDERDKTSRNMRGSRMNGLPSPTHSAHCSFYRTRTLQALSNEKKAKKVRFYRNGDRYFKGIVYAVSSDRFRSFDALLADLTRSLSDNINLPQGVRYIYTIDGSRKIGSMDELEEGESYVCSSDNFFKKVEYTKNVNPNWSVNVKTSANMKAPQSLASSNSAQARENKDFVRPKLVTIIRSGVKPRKAVRVLLNKKTAHSFEQVLTDITEAIKLETGVVKKLYTLDGKQVTCLHDFFGDDDVFIACGPEKFRYAQDDFSLDENE
modifications: CoA-CF488 or CoA-JF549 on the ybbR-tag

- dwell time of JIP3 on dynein [3]: 0.42 s
B3: mouse JIP3 (amino acids 1-240; cloned as 3-240) with C-terminal HaloTag (domain or fragment)
chain: EIQMDEGGGVVVYQDDYCSGSVMSERVSGLAGSIYREFERLIHCYDEEVVKELMPLVVNVLENLDSVLSENQEHEVELELLREDNEQLLTQYEREKALRKQAEEKFIEFEDALEQEKKELQIQVEHYEFQTRQLELKAKNYADQISRLEERESEMKKEYNALHQRHTEMIQTYVEHIERSKMQQVGGSGQTESSLPGRSRKERPTSLNVFPLADGMVRAQMGGKLVPAGDHWHLSDLG
modifications: Halo-JF646 on the HaloTag
